Patent US20260207715A1, “KIT FOR COMBINATION THERAPY OF TUMOR DISEASES AND/OR INFECTIONS” (priority 2022, published 2026)
Entries after “also recorded” stand apart in the source; their conditions may differ.

B1: APIT: FAD-binding L-amino acid oxidase from Aplysia punctata, SEQ ID NO. 1 (protein, listed as Aplysia punctata)
chain: MDGVSRNRRQCNREVCGSTYDVAVVGAGPGGANSAYMLRDSGLDIAVFEYSDRVGGRLFTYQLPNTPDVNLEIGGMRFIEGAMHRLWRVISELGLTPKVFKEGFGKEGRQRFYLRGQSLTKKQVKSGDVPYDLSPEEKENQGNLVEYYLEKLTGLQLNGEPLKREVALKLTVPDGRFLYDLSFDEAMDLVASPEGKEFTRDTHVFTGEVTLDASAVSLFDDHLGEDYYGSEIYTLKEGLSSVPQGLLQAFLDAADSNEFYPNSHLKALRRKTNGQYVLYFEPTTSKDGQTTINYLEPLQVVCAQRVILAMPVYALNQLDWNQLRNDRATQAYAAVRPIPASKVFMTFDQPWWLENERKSWVTKSDALFSQMYDWQKSEASGDYILIASYADGLKAQYLRELKNQGEDIPGSDPGYNQVTEPLKDTILDHLTEAYGVERDSIPEPVTAASQFWTDYPFGCGWITWRAGFHFDDVISTMRRPSLKDEVYVVGADYSWGLISSWIEGALETSENVINDYFL
modifications: FAD cofactor

Experiments:
HER2-positive tumor = assay: Tumor targeting and biodistribution in mice with HER2-positive and HER2-negative tumor; type: in vivo; conditions: six hours after exposure, NIR-labelled protein
Experimental: Tumor targeting and biodistribution of (A) zHER2-APIT-NIR and (B) APIT-NIR in mice with HER2-negative tumor (black) and HER2-positive tumor (gray); (whiskers indicate 10-90% percentile values, line in the box is the median; significance was tested with the Mann-Whitney U test, *p<0.05 was considered statistically different; n.s.=not significant; n=6).
Labelling of 1 eq protein was performed with either 6 eq of AlexaFluor680™-maleimide (NIR) or 10 eq of TexasRed-maleimide in PBS containing 50 mM TCEP pH 7.4 at a protein concentration of 1.0 mg/mL overnight. Reaction mixture was purified via HiTrap Q HP using 50 mM Tris pH 8.0 (A) and 50 mM Tris 1 M NaCl pH 8.0 (B) with following method: 30% B for 45 CV, 30-100% B in 30 CV. The eluent was dialyzed in PBS. The degree of label (DOL) was determined according to the manufacturer's instructions using extinctions coefficient of 1.539 mLmg-1 cm-1 for APIT.

[1] = molecular target: T1, HER2 receptor on HER2-positive cells (BT474 cell line) (Homo sapiens, UniProt P04626); assay: Cell-based HER-2 binding assay on fixed HER2-positive cells; conditions: fluorescent dye labeled protein
T1 construct: host or cells: BT-474 (HER2-positive breast cancer cell line), fixed with 4% paraformaldehyde
From the text: (§1) Shown are results of cell culture experiments to confirm the selective HER2 binding of the fusion proteins. The fusion proteins zHER2:342-APIT and zHER2:342(K4R/K7A/K27R/K49R/K50A/K58A)-APIT were labeled with fluorescent dye and probed for HER2 binding on fixed cells. Cell nuclei were stained with Hoechst33342.
Left panels: HER2-positive cells (BT474 cell line). Here, the fluorescent dye labeled fusion proteins bind to the HER2 receptor located on the cell membrane.
(§2) HER2 positive BT-474 (ACC 64), adherent cells were cultured in RPMI 1640 containing 20% (v/v) FBS, MEM non-essential amino acids, 1 mM Pyruvate, 10 μg/ml human insulin. HER2-negative MDA-MB-231 (ACC 732) adherent cells were cultured in Leibowitz' L15, 20% FBS. Cells were cultured from frozen stocks and passaged two times prior to the assay. Cells were incubated at 37° C., 5% CO2 humidified. At a confluency of 80% cell passaging was performed by trypsination using 0.25% (w/v) trypsin/0.2% (w/v) EDTA. Cells were seeded at 10 k cells/well on sterilized degreased 4%-gelatin coated cover slides ([…]) in 24-well plates and grown over night in the incubator. Cells were washed with PBS and fixated with freshly made 4% (w/v) paraformaldehyde solution for 30 min. […] Fluorescence signal was imaged using a ZEISS motorized Axio ZI observer fluorescence microscope. Images were analyzed and processed using Zeiss Zen Pro software.

[2] = test system: HER2-negative cells (MDA-MB-231); assay: Cell-based HER-2 binding assay on fixed HER2-negative cells (negative control); conditions: MDA-MB-231, fixed cells, fluorescent dye labeled protein
Experimental: as §1
Right panels: HER2-negative cells (MDA-MB-231).
as §2

ROS (H2O2) production = assay: Enzymatic activity, production of ROS (H2O2), spectrofluorimetric experimental setup; type: biochemical; conditions: for enzymatically active: fusion protein; for enzymatic activity, production of ROS (H2O2): spectrofluorimetric experimental setup
From the text: The proteins APIT, the fusion protein zHER2:342-APIT and zHER2:342(K4R/K7A/K27R/K49R/K50A/K58A)-APIT were successfully recombinantly produced and purified. The proteins were verified for identity and purity by mass spectrometry and high-performance liquid chromatography (HPLC) (see FIGS. 3 and 4). Subsequently, both proteins were compared with respect to their enzymatic activity, in particular the production of ROS (H2O2) via a spectrofluorimetric experimental setup. The activity of both species is very similar: • APIT: 80 U/mg, • zHER2:342-APIT: 70 U/mg, • zHER2:342(K4R/K7A/K27R/K49R/K50A/K58A)-APIT: 70 U/mg.

NIH3T3 cells spheroids = assay: Spheroid formation of NIH3T3 cells, propidium iodide staining; type: cell-based, murine; conditions: 24 hours
Experimental: In this example, immortalized murine fibroblast NIH3T3 cells were specifically chosen for generating spheroids due to their ability to produce a consistently uniform, rounded, and tightly cohesive structure. […] To achieve this, NIH3T3 cells (150,000 cells/mL) were seeded on non-tissue culture treated petri dish coverslips in 10 μL drops. Subsequently, they were treated with camptothecin and compound 4, the latter being activated both with and without H2O2, and were incubated upside down for 24 hours at 37° C. under 5% CO2. Following the incubation period, the spheroids were stained with propidium iodide (0.003 μg per 10,000 cells) for 3 minutes at room temperature. The analysis of these spheroids was conducted using an Axio Observer.Z1 microscope equipped with an A-Plan 10×/0.25 Ph1 objective (Zeiss). The images were recorded with a phase-contrast channel, and a 43 DsRed Reflector (λex=538-562 nm λem=570-640 nm) with a mercury vapor short-arc lamp.

Molecule	levels in HER2-positive xenografts compared to HER2-negative tissues (HER2-positive tumor)	binding to HER2-positive cells [1]	binding to HER2-negative cells [2]	enzymatically active (ROS (H2O2) production)	enzymatic activity, production of ROS (H2O2) (ROS (H2O2) production) [U/mg]	effect on spheroids (NIH3T3 cells spheroids)
zHER2-APIT: APIT fused with the zHER2 affibody, AlexaFluor680 (NIR) labelled for biodistribution	Significantly higher levels	–	–	–	–	–
zHER2:342(K4R/K7A/K27R/K49R/K50A/K58A)-APIT: fusion protein of lysine-deleted zHER2:342 mutant and APIT, SEQ ID NO. 5	–	bind to HER2 positive; also recorded: confirmed	not HER2 negative cells	enzymatically active	70	–
CC[C@@]1(O)C(=O)OCc2c1cc1n(c2=O)Cc2cc3ccccc3nc2-1 [camptothecin]	–	–	–	–	–	disintegration of spheroids
zHER2:342-APIT: fusion protein of targeting sequence zHER2:342 and APIT, SEQ ID NO. 4	–	bind to HER2-positive; also recorded: confirmed	not HER2-negative cells	remain enzymatically active	70	–
B1	did not show differences	–	–	–	80	–
